Test results published in article PMC2650403.

B1: Protector of telomeres 1, variant 1 (POT1v1) (natural protein)
chain: MSLVPATNYIYTPLNQLKGGTIVNVYGVVKFFKPPYLSKGTDYCSVVTIVDQTNVKLTCLLFSGNYEALPIIYKNGDIVRFHRLKIQVYKKETQGITSSGFASLTFEGTLGAPIIPRTSSKYFNFTTEDHKMVEALRVWASTHMSPSWTLLKLCDVQPMQYFDLTCQLLGKAEVDGASFLLKVWDGTRTPFPSWRVLIQDLVLEGDLSHIHRLQNLTIDILVYDNHVHVARSLKVGSFLRIYSLHTKLQSMNSENQTMLSLEFHLHGGTSYGRGIRVLPESNSDVDQLKKDLESANLTANQHSDVICQSEPDDSFPSSGSVSLYEVERCQQLSATILTDHQYLERTPLCAILKQKAPQQYRIRAKLRSYKPRRLFQSVKLHCPKCHLLQEVPHEGDLDIIFQDGATKTPDVKLQNTSLYDSKIWTTKNQKGRKVAVHFVKNNGILPLSNECLLLIEGGTLSEICKLSNKFNSVIPVRSGHEDLELLDLSAPFLIQGTIHHYGCKQCSSLRSIQNLNSLVDKTSWIPSSVAEALGIVPLQYVFVMTFTLDDGTGVLEAYLMDSDKFFQIPASEVLMDDDLQKSVDMIMDMFCPPGIKIDAYPWLECFIKSYNVTNGTDNQICYQIFDTTVAEDVI

Experiments:
[1] = target: Werner syndrome protein (WRN), recombinant His6-tagged, wild type (human) (UniProt Q14191)
[2] = target: WRN-E84A, full-length WRN with the N-terminal exonuclease inactivating mutation E84 to alanine (human) (UniProt Q14191)

| Molecule | radiometric DNA helicase assay, percent unwinding of a telomeric-repeat substrate lacking the 3′-ss tail by WRN (3 nM) with RPA 6 to 24 nM [1] [%] | radiometric DNA helicase assay, increase in unwound product of a 30-nt gap telomeric substrate pre-bound with POT1v1 (6 to 48 nM), WRN-E84A 6 nM; value at the 1:8 ratio of WRN-E84A to POT1v1 [2] [%] |
| --- | --- | --- |
| Recombinant human replication protein A (RPA) (complex) | 22 |  |
| B1 |  | 10 |
